Data on one molecule can be found in publication PMC549393.

This data set has as its target T1, TBP (TATA-binding protein);Brf1;Bdp1 (yeast?;yeast?;yeast?, UniProt P13393;P29056;P46678 1-240;1-596;1-594, ||).
T1 sequence 1: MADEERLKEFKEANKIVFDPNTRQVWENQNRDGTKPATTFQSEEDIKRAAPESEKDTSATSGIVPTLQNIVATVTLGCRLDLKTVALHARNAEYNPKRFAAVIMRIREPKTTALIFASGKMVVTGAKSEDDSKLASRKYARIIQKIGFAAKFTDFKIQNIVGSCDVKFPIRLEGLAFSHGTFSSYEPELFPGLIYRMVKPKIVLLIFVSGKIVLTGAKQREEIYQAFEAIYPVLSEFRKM
T1 sequence 2: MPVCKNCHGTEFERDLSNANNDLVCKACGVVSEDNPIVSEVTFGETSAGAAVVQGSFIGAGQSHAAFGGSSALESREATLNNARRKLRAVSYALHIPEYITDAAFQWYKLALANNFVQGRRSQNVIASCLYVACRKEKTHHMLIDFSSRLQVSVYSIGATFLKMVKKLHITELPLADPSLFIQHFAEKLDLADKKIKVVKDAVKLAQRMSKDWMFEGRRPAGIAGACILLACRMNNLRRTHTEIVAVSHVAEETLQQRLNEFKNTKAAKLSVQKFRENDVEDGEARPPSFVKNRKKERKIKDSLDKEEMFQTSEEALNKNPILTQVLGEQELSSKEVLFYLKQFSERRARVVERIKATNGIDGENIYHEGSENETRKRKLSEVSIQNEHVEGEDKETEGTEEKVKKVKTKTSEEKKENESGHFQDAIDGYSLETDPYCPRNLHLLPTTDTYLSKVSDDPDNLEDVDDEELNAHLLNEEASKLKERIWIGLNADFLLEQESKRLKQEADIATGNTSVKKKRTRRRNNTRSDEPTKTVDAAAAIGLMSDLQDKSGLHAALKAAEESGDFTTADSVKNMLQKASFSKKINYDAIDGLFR
T1 sequence 3: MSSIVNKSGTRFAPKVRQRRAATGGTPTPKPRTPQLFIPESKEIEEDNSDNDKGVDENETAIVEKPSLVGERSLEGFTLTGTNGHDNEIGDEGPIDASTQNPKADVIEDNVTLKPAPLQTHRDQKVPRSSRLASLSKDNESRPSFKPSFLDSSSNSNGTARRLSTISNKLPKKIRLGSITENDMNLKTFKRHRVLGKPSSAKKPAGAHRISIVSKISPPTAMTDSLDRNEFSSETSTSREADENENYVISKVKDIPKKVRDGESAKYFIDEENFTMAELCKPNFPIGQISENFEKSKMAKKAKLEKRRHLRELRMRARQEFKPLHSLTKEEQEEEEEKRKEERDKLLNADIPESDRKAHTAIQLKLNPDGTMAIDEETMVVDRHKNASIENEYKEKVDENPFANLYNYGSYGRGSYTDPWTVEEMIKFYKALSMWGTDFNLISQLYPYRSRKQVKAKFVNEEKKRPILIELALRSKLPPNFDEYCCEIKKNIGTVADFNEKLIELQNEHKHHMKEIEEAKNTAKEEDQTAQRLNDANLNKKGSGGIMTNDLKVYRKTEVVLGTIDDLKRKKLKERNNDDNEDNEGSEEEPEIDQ
Description: EMSA. On the technique in general: Mobility shift assays separate free from complexed probe on a gel.

B1: U6 (SNR6) TATA-DNA, 30 bp (dsDNA)
DNA 1: TTTTCGGCTACTATAAATAAATGTTTTTTT
DNA 2: AAAAAAACATTTATTTATAGTAGCCGAAAA
On to B1, for which the binding result is “binds”.
